Publication PMC3689539 (Structure (London, England : 1993), 2009)

Target: the molecule itself
Assay: SEC

B1: full length unphosphorylated wild-type MEK6 (natural protein, human, UniProt P52564 1-334, looked up)
chain: MSQSKGKKRNPGLKIPKEAFEQPQTSSTPPRDLDSKACISIGNQNFEVKADDLEPIMELGRGAYGVVEKMRHVPSGQIMAVKRIRATVNSQEQKRLLMDLDISMRTVDCPFTVTFYGALFREGDVWICMELMDTSLDKFYKQVIDKGQTIPEDILGKIAVSIVKALEHLHSKLSVIHRDVKPSNVLINALGQVKMCDFGISGYLVDSVAKTIDAGCKPYMAPERINPELNQKGYSVKSDIWSLGITMIELAILRFPYDSWGTPFQQLKQVVEEPSPQLPADKFSAEFVDFTSQCLKKNSKERPTYPELMQHPFFTLHESKGTDVASFVKLILGD
- stoichiometry N: 2
